EC50 data for two molecules are collected here from patent US20040186051A1 (Genentech, published 2004).

This test deals with T1, DR4 receptor (human, UniProt O00220 24-239, limits assumed).
T1 construct: The construct used in the ELISA is not described
As to the kind of experiment: receptor binding ELISA. Background: In an ELISA, binding on a coated surface is turned into a signal by an enzyme label.

In general, EC50 refers to the concentration giving half of the maximal effect. A high value points to lower potency in that assay.

T1 sequence (O00220 24-239 H141R/R209T limits assumed): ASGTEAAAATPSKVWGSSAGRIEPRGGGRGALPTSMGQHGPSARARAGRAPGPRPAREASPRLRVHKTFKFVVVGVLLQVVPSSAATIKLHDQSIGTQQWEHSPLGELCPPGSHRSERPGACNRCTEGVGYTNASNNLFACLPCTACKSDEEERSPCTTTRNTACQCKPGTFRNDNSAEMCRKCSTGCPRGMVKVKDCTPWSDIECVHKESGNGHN

B1: PEG-R170C-Apo2L.0(32176-78) (ligand)
chain: VRERGPQRVAAHITGTRGRSNTLSSPNSKNEKALGRKINSWESSRSGHSFLSNLHLCNGELVIHEKGFYYIYSQTYFRFQEEIKENTKNDKQMVQYIYKYTSYPDPILLMKSARNSCWSKDAEYGLYSIYQGGIFELKENDRIFVSVTNEHLIDMDHEASFFGAFLVG
modifications: Cys170 either carries methoxy-PEG-maleimide, MW 2,000 D, or is in a disulfide bond with Cys170 of another trimer; rest blocked with iodoacetamide
notes: the number of chains is therefore not one value; also called partially PEGylated and disulfide crosslinked R170C-Apo2L.0; PEG-R170C-Apo2L.0 lot 32176-78
Molecule B1 showed a 50% effective concentration (EC50) of 0.0045 µg/mL.

B2: PEG-R170C-Apo2L.0 (32176-87C) (ligand)
chain: B1 chain
modifications: methoxy-PEG-maleimide, MW 2,000 D, on Cys170 (one PEG per monomer); residual unpegylated Cys170 carboxyamidomethylated with iodoacetamide
notes: also called PEG-2K-R170C-Apo2L.0; R170C-PEG-2K
Take B2: the response was half-maximal at 0.0422 µg/mL (EC50).
